The results in this text go back to the RNAGym collection of RNA variant scans (doi:10.1073/pnas.2313332121).

The labels stand for the following.
B1: TPR t1 (parent)
chain: GACCAAUCUGCCCUCAGAGCUCGAGAACAUCUUCGGAUGCAGAGGAGGCAGGCUUCGGUGGCGCGAUAGCGCCAACGUCCUCAACCUCCAAUGCAUCCCACCACAUGAUGAUGCCUGAAGAGCCUUGGUUUUUUG

In this data set the parent is B1. Briefly: polymerase ribozyme fitness, log enrichment relative to wild type (log ratio); higher = more active; in vitro selection for triplet polymerase activity. In short, it runs like this:
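The heterodimeric triplet polymerase ribozyme's subunits were each mutagenized into PCR-built libraries and transcribed. Every library was selected once, in triplicate, by annealing with a biotinylated primer, the partner subunit and triplets, incubating frozen at −7 °C, gel-excising extended constructs, capturing on streptavidin beads and running RT-PCR. Input and output libraries were Illumina-sequenced, with genotypes kept only at ≥10 input reads and ≥1 read per output. Fitness, from inverse-variance-weighted replicate averages, is the base-2 logarithm of genotype enrichment over wild-type enrichment.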
As to G45C G47U A50G G57U, the “polymerase ribozyme fitness (log ratio)” value is -3.62.
The value for G47A C82G C123G U125A was -1.38; that for A46U G48A C79G C82U G120A C123A was -3.09.
As for A46U C70G, the “polymerase ribozyme fitness (log ratio)” value is -4.75.
The value for G45C U87C was -0.513; that for G45A G60C was -0.0735; that for G45C G69C U133A was -2.27.
For A46C C56U G63A C114G G127C U129A, the “polymerase ribozyme fitness (log ratio)” value is -5.93.
Consider A46U G117A, for which the “polymerase ribozyme fitness (log ratio)” value was -2.21.
The value for G47A C76G A90G was -0.228.
With A46U G69A, the “polymerase ribozyme fitness (log ratio)” value is -3.54.
For the variant A46U G69U, the “polymerase ribozyme fitness (log ratio)” value was -0.372.
As to G47U C88G U96A U112A, the “polymerase ribozyme fitness (log ratio)” value is -6.98.
The value for G47A G60U G93C C101A was -4.1; that for G47C C72U C94U was -2.45; that for G45A C72U A74U was -1.2.
For A46C C102A G120U C123A, the “polymerase ribozyme fitness (log ratio)” value was -2.45.
Take G45U A84C C86A G117A: the “polymerase ribozyme fitness (log ratio)” value is -3.94.
The value for G45A G48A C86A C89U was -2.36; that for G45U C94U C102U was -3.33.
The value for A46U A74U A91G was -3.52.
The value for G47C C70U was -2.2.
As for G47A C114A C123G U125A, the “polymerase ribozyme fitness (log ratio)” value is -2.46.
On to G47C A111U, for which the “polymerase ribozyme fitness (log ratio)” value is -4.54.
The value for A46C C62U C86U C97U A111U C124U was -5.27.
The value for G45C U55C A119U was -2.39; that for G47C C49G was -2.19.
The value for G45U C73U G110A G122A G128C was -6.61; that for G47U A100U U116A G117A U132A was -5.1; that for A46U A90C U133A was -1.74.
On to G47U A95C U96A, for which the “polymerase ribozyme fitness (log ratio)” value was -4.33.
The value for G45A G47U A66U C73A C82U was -3.27.
As to G45C G51U G57U C99A G117C, the “polymerase ribozyme fitness (log ratio)” value is -7.29.
The value for A46U C79U U96A C115U C123G U132A was -2.94; that for G47A C86A A90G G117U G120C was -0.329.
For A46U C56A, the “polymerase ribozyme fitness (log ratio)” value is -1.15.
The value for A46U A103C C115G was -6.95.
The value for G45C G61C U131G was -1.96; that for A46U U54G C72A C82A G110U was -4.48.
The value for G47C U55G G71U U106A U129A G135C was -2.24; that for A46C C53U U54G G71U G120U was -0.575; that for G47U C98U U112A was -3.7.
In the case of G45U G47A U116C, the “polymerase ribozyme fitness (log ratio)” value is -5.47.
A46U C53U A84C C88U: the “polymerase ribozyme fitness (log ratio)” value was -1.14.
The value for G47A A50U was -1.57.
The value for G47A G51C G77C C80U U87C C124G U131G was -1.89; that for G45A U55A was 0.00657; that for A46U G61A was 0.101.
For the variant A46C G47A C53A G60A C73G, the “polymerase ribozyme fitness (log ratio)” value is -1.61.
The value for G47A A91C G117U U133G was -4.6.
The value for G47A C70U was -1.86; that for G47A G61A C85A C98A was -6.7; that for G47U C72G U81A was -3.46.
With G45C C62U, the “polymerase ribozyme fitness (log ratio)” value is -1.63.
The value for G45U C85G G122A was -3.83.
With G47U C49G, the “polymerase ribozyme fitness (log ratio)” value was -0.991.
The value for G45U U106A was -1.76; that for G45U G77U G93U G120U was -3.3; that for A46G C124U was 0.675.
The value for G45C G93U A121U was -1.16; that for G47A C102A was -2.65; that for G47A C102G was -5.8.
The value for A46U C49U C72A A121C was 0.996.
As for G45A C72U G110C, the “polymerase ribozyme fitness (log ratio)” value is -4.39.
The value for A46C G57A C62G A121G was -1.34; that for G45U G69A was -4.29.
The value for A46U G135U was -1.71.
The value for A46U G135C was -1.33; that for A46C C49U A83U was -4.1; that for G47A C53U was -1.23.
On to A46U G61A G110U G120C G122A, for which the “polymerase ribozyme fitness (log ratio)” value was -4.73.
The value for G47U A119U was -1.82; that for A46G G63U A121U U126A was 0.154; that for A46C C53U C56A U112A was 0.259.
Take G45U C64U U81A: the “polymerase ribozyme fitness (log ratio)” value was -2.88.
The value for G47C C89U C124G was -0.507; that for G47C C56G C72G C82U C97U U112A was -2.21; that for G47U C70U C82G G120U C124G G127A was -0.105.
The value for G47A U55A was -0.45; that for G47U C53A C114A was -2.64.
Take G47A G61A U116A U129A: the “polymerase ribozyme fitness (log ratio)” value was -4.01.
The value for G47U C76A C79A C80G C94G A100C U116G C124U U129A was -5.73; that for G47A G48C A100U U112A was -0.897; that for G47C G48A C86U A90U was -2.46.
The value for A46C C53A G77U was -0.585; that for G45C G47A was -3.52.
The value for G45U C72U U87A was -1.19; that for G47A A90C U112A was -2.17; that for A46C G48A C101U G110C was -6.49.
On to G45U C64U, for which the “polymerase ribozyme fitness (log ratio)” value is -0.713.
The value for G47A G60A C85G C123U was -3.19.
For the variant G45A G69A, the “polymerase ribozyme fitness (log ratio)” value is -3.01.
The value for G45U C56U G122U U129C was -1.59; that for G47C A111G C123U was -3.06.
With G45C C79A A121G, the “polymerase ribozyme fitness (log ratio)” value is -0.868.
The value for G45U C89U U92A U106A U133G was -3.32; that for A46U C70A C85U was -3.76.
The value for G47C G77C C98U G113C U130C was -6.15.
The value for G45C G51A G63A U78A C123G was -4.51; that for G45U A74G U132A was -2.04; that for G47U A100C U106A C124G was 0.694.
As for A46G C53A, the “polymerase ribozyme fitness (log ratio)” value was -0.35.
The value for A46C A100U U131G was -1.22; that for G45U G48A was -1.51; that for G45U A91C was -2.07.
The value for G47U C53A U129G was -2.44; that for A46U A66C C123G C124A was 0.0849; that for A46U G48A was -2.28.
Consider G45C C72A, for which the “polymerase ribozyme fitness (log ratio)” value was -0.797.
For the variant A46C U87A A91C U96A, the “polymerase ribozyme fitness (log ratio)” value was -2.01.
The value for G45U C114U was -3.17; that for A46U C64U C99U was -4.36; that for A46U G110U G120C G122A was -5.9.
Turning to A46G A66U C73A C82G, the “polymerase ribozyme fitness (log ratio)” value is -2.3.
The value for G45A U92A was -3.38.
Consider G47A A50U G60C G77A, for which the “polymerase ribozyme fitness (log ratio)” value is -5.
The value for G47U C98U was -4.36; that for G47A G69U C86A C97U C115U C124G U125C was -0.107.
Turning to G45U C123U G127U, the “polymerase ribozyme fitness (log ratio)” value was -1.39.
The value for G47A G71C was -1.56; that for G47A G71U C123A was -0.967; that for G45U C70A C123U was -1.23.
A46G U59A: the “polymerase ribozyme fitness (log ratio)” value is -0.58.
The value for G45C G69U C82A G127A was -3.34; that for G45C C72U A90U G128C was -4.85; that for G45U C123U was -0.952.
The value for A46U A121U was 0.389; that for G47U C80A G113A was -6.73; that for G45A G52A C89U U92A G120U was -3.99.
For the variant G45C C89U, the “polymerase ribozyme fitness (log ratio)” value is -1.92.
The value for G45A G71A G113A C124U was -2.34; that for G45C U54C C73A U81A G93C A111C was -4.76; that for A46G A90G was 0.482.
The value for G45A C56G U87G C114G was -5.48.
In the case of A46U C124A, the “polymerase ribozyme fitness (log ratio)” value amounted to 0.552.
Turning to G47A G60A C124G U133A, the “polymerase ribozyme fitness (log ratio)” value came out at 1.3.
On to G47U A90U G117C, for which the “polymerase ribozyme fitness (log ratio)” value is -4.37.
Turning to A46U C64U A90U U96A U106A U131A, the “polymerase ribozyme fitness (log ratio)” value is -3.76.
The value for G45C A100G G120A U133A was -2.23; that for A46U U92C A100U G113C was -4.52; that for A46G A103U U125A was -5.23.
The value for G45U C56G G77A C101U U112C was 0.372.
The value for G47A A75G U96C was -0.307; that for A46C U87A C123U U132A was 1.86; that for G47A G135U was -2.25.
For G47C U54G G58C G69U, the “polymerase ribozyme fitness (log ratio)” value turned out to be 1.13.
The value for G47A C85G G113A U132A was -2.45.
The value for A46U G63C U112C G117C A121U was -3.75.
As for G47A G60U C101A, the “polymerase ribozyme fitness (log ratio)” value is -0.894.
The value for G45A C73U C97U A103U G120C was -5.59.
The value for G45A C53G was -0.662; that for G45C U92A was -3.97; that for G45A U59A C104U was -0.336.
In the case of G47A G51A, the “polymerase ribozyme fitness (log ratio)” value is -4.37.
Turning to A46U C104U, the “polymerase ribozyme fitness (log ratio)” value was -0.991.
The value for G45U G93C was -0.927.
Turning to G47A A103C G122A, the “polymerase ribozyme fitness (log ratio)” value was -6.8.
The value for G45A C99A was -6.7.
The value for G47C C123G was -1.31; that for G47U C53U G120U was -1.25.
Take A46U U59C G93A U130C: the “polymerase ribozyme fitness (log ratio)” value is -2.04.
Take A46G C64U: the “polymerase ribozyme fitness (log ratio)” value is -0.426.
The value for G45C U130C was -2.26; that for A46G C73U C88A U130A was -3.03; that for A46U G52U C123A was -3.01.
The value for G45U C72U G120A was -0.418; that for A46U C82U was -1.14.
